Laboratory results from PMC3307385.

Biological target: mouse soluble recombinant SLLP1 (mouse) (UniProt Q9D9X8)
Experiment: SPR

Sequence of UniProt Q9D9X8 (Q9D9X8 95-221): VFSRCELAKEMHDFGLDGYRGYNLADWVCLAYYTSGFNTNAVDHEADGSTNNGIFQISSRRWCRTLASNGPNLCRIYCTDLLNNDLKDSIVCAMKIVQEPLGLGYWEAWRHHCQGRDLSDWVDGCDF

## recombinant mouse SAS1B (V2), full length doublet (~51, ~50 kD) (natural protein)
  Kd: 0.32 nM
